The labels stand for the following.
B1: CPEB3 Ribozyme (parent)
chain: UAACAGGGGGCCACAGCAGAAGCGUUCACGUCGCAGCCCCUGUCAGAUUCUGGUGAAUCUGCGAAUUCUGCUGUAUAUCUC

Variants of B1 are the subject of this data set. The data set is described as follows: self-cleavage, relative activity (ratio to wild type); higher = more cleavage; in vitro, sequencing. An outline of the steps:
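CPEB3 self-cleaving ribozyme mutant libraries were made by rounds of error-prone PCR, barcoded, and transcribed in vitro with T7 RNA polymerase for 5 hours at 37°C. Cleavage occurred during transcription and a 15 min DNase I step before EDTA stop. RNAs were reverse transcribed with template switching and Illumina-sequenced, with DNA sequencing mapping barcodes to variants. Relative activity is the variant's cleaved/total read fraction divided by wild type's (minimum 5 reads), averaged across three batches.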
In the case of G30U U76C, the self-cleavage was 0.39. Consider U25C G33A, for which the self-cleavage turned out to be 0.25. For G19U A45U, the self-cleavage amounted to 0.2.

Take A13C A28G: the self-cleavage is 0.62. The figure for G22A G53A is 0.6. With G24C A57U the figure was 0.11; with A13G U69C, 0.32; with C4U A28G, 1.03. With U43A A47G the figure was 1.06; with A18U U54G, 0.34; with U54A U69A, 0.86.

With G53C U58C, the self-cleavage came out at 0.68. The figure for U31C is 0.87; for G16U U76A it is 0.33; for C17A A28G it is 0.22. The figure for G8C U25C is 0.15; for A18U U49A it is 0.38. The figure for A65U U72C is 0.36. Take A47U C62U: the self-cleavage was 0.33. For A5G U66A, the self-cleavage is 0.23. The figure for C71U U72G is 0.62. The figure for A18U U69C is 0.47; for A3G C79A it is 1.05.

On to A18G C50U, for which the self-cleavage amounted to 0.63. With U41A U80C the figure was 0.32; with U48A C59A, 0.44; with A20C U69C, 0.18. The figure for U48C U76C is 0.67; for U69G it is 0.74; for G36A U60C it is 0.13. The figure for A3U G46A is 0.54; for U48A U80A it is 0.87. On to C23U A64U, for which the self-cleavage was found to be 0.16. The figure for U26A A65U is 0.35; for A21U C23A it is 0.22. With A15G C44U the figure was 0.32; with G36U G73A, 0.37; with A64G, 0.93. With U54A G70C the figure was 0.39; with G6A C59A, 0.15; with C62U A77C, 0.19. Regarding G33A U51C, the self-cleavage was 0.37. As to A15G G42A, the self-cleavage was determined as 0.15.

With A3G U51A, the self-cleavage was 1. With U72G U80C the figure was 1.19; with C40U U41C, 0.92; with U25G A35U, 0.39. The figure for A13G C17G is 0.13. The figure for A3G G6C is 0.77. For C38U U78A, the self-cleavage amounted to 1.17. With U66C A75C the figure was 0.54.

Take A18G G36A: the self-cleavage stood at 0.31. G33A A45U: the self-cleavage is 0.39.

Turning to U1C C37U, the self-cleavage was 0.37. The figure for A57C A75U is 0.58; for C11A A57G it is 0.33. The figure for A18U C44A is 0.15. As for U67A, the self-cleavage stood at 0.54. In the case of C40U A45C, the self-cleavage is 0.17.

Take U51G G61A: the self-cleavage was found to be 0.45.

Take A35U U76C: the self-cleavage stood at 0.52. With C44U C62A the figure was 0.14; with A20G G46A, 0.26. The figure for U49G U69C is 0.21. The figure for U49G U69A is 0.36; for G61A U80G it is 1; for G7C U31C it is 0.41. As for G19U U48C, the self-cleavage amounted to 0.2. With G73A U80C the figure was 1.36; with A18C A28C, 0.43. As for U26A G52U, the self-cleavage stood at 1.08. With G36U U41A the figure was 0.29; with A2G G22A, 0.22; with U43A G70U, 0.54. The figure for A47G A77G is 1.09; for U31C G63A it is 0.67. The figure for G7C A35G is 0.31; for G7C A35C it is 0.09; for U49C A56C it is 0.42. For the variant U49C A56G, the self-cleavage came to 1.04. With U43C A77U the figure was 0.78; with A21G C39G, 0.37; with G6C U41C, 0.49.

For A3G C23U, the self-cleavage was found to be 0.38. With U54G U60A the figure was 0.37.

With A21G G63U, the self-cleavage is 0.61. With A5C A35G the figure was 1.18; with U1A U60A, 0.56; with A5U G46A, 0.36. Take C29U U51A: the self-cleavage was determined as 0.53.

Turning to U48C U49C, the self-cleavage was determined as 0.32. The figure for G7U A75G is 0.2; for C17G U41A it is 0.25; for C23U U54G it is 0.31. With C62G A77U the figure was 0.19; with G10C A20G, 0.19; with G10C A20U, 0.42.

Take G9A U67A: the self-cleavage worked out at 0.11. The figure for C44A U60C is 0.17; for G42A G70A it is 0.19. Regarding G33U A65G, the self-cleavage was 0.43. Consider C11G A57U, for which the self-cleavage was 0.39. For the variant U1G U78C, the self-cleavage amounted to 0.82. With A56U A77C, the self-cleavage worked out at 0.62. The figure for A28U U76A is 0.87.

With A18G G55U, the self-cleavage is 0.7.

With C40G U72G, the self-cleavage was 0.16. With C39U U78A the figure was 0.89; with G70U U72G, 0.35.

Turning to G33U U60A, the self-cleavage worked out at 0.48. With G46U C68U the figure was 0.23. The figure for C29G C81A is 0.3. The figure for G33C U69C is 0.13; for C14U A75U it is 1.23. With A18U A28G, the self-cleavage was found to be 0.26. Take A13G A75U: the self-cleavage amounted to 0.99. On to A64U U80A, for which the self-cleavage came out at 0.37. With A15U C34A the figure was 0.37; with G30A U60G, 0.34. With C23U U67G the figure was 0.38; with C29A U72C, 0.31; with U1G U74C, 1.13. U41C G42C: the self-cleavage was 0.23. The figure for C40U A56G is 0.48; for C27U U43C it is 0.21; for C27U U43A it is 0.29.

For G10C U74A, the self-cleavage worked out at 0.26.

Consider G9A G10A, for which the self-cleavage turned out to be 0.45.

Consider U1C G42A, for which the self-cleavage turned out to be 0.45. The figure for U1A C38A is 0.35; for G8U U72C it is 0.15. The figure for C14U U51C is 1.25. C39A U72C: the self-cleavage is 0.32. With C50G U51C the figure was 0.68; with A15G G30A, 0.33. With U60G U67A the figure was 0.26; with C37U G61A, 0.21. The figure for A15G U69A is 0.35; for C39U U58C it is 0.3. As to U43G A64G, the self-cleavage amounted to 0.46. With C50A U67C the figure was 0.2; with A45U C68G, 0.25. The figure for G22A C38U is 0.17. With U26A G33A the figure was 0.17.

Take G55U U78C: the self-cleavage turned out to be 0.75. The figure for A21G U48A is 0.35. As to U43A U80A, the self-cleavage was found to be 1.22. With U26A U54G the figure was 0.53; with A35G G42C, 0.16; with G52U U67C, 0.32. The figure for C11G G36U is 0.09; for C34G U72G it is 0.15; for G7U U26A it is 0.21. With U43C G63A the figure was 0.47; with A65G U67A, 0.3; with G6A C29U, 0.08.

Turning to G9A A77G, the self-cleavage worked out at 0.3. The figure for U1A U31A is 0.64; for C11G A18U it is 0.39; for A21U A28G it is 0.22.

In the case of U49A G63A, the self-cleavage is 0.69. The figure for A35C A56G is 0.77; for U58A A77U it is 0.43; for G6U A57G it is 0.43. With A21C C38U the figure was 0.16; with C38U U41C, 0.87. The figure for U41G U76C is 0.27.
